Measurements as given in patent publication WO2011158973A1 (dated 2011).
Blank lines part the entries; values can stand above or below the binder they belong to.

What was measured:
mouse fibrinogen [1] = biological target: T1, mouse fibrinogen (mouse, UniProt E9PV24 20-557; Q8K0E8 20-481; Q8VCM7 26-436, limits assumed); assay: ELISA, hybridoma 102-10 culture supernatant on fibrinogen plate (Fig. 1C)
T1 construct: also called fibrinogen (4)
T1 sequence (looked up) 1: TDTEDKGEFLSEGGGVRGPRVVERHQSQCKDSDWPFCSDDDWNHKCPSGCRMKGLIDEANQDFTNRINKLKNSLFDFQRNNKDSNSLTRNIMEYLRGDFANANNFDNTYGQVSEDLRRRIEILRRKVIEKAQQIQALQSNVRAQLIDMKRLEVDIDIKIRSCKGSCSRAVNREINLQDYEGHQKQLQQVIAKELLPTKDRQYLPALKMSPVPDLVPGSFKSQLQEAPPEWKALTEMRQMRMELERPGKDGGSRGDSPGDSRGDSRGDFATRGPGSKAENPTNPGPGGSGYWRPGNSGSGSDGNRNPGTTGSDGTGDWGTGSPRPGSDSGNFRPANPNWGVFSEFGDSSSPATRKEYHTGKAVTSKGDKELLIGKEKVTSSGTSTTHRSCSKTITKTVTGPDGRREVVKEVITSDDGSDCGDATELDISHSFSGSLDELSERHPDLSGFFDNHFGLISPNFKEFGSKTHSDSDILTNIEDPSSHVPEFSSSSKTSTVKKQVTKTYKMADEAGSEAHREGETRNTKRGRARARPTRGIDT
T1 sequence (looked up) 2: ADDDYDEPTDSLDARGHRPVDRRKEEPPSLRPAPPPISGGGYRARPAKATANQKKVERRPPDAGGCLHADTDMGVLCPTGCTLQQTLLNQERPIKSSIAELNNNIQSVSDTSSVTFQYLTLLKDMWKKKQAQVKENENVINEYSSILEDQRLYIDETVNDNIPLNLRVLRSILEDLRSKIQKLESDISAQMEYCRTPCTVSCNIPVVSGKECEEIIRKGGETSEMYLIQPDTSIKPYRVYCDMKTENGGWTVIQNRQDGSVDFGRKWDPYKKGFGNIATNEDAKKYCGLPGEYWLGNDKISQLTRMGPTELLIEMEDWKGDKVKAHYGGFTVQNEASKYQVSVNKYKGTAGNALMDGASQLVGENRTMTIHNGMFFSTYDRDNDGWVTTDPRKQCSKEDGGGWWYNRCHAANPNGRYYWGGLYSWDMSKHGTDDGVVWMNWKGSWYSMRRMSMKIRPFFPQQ
T1 sequence (looked up) 3: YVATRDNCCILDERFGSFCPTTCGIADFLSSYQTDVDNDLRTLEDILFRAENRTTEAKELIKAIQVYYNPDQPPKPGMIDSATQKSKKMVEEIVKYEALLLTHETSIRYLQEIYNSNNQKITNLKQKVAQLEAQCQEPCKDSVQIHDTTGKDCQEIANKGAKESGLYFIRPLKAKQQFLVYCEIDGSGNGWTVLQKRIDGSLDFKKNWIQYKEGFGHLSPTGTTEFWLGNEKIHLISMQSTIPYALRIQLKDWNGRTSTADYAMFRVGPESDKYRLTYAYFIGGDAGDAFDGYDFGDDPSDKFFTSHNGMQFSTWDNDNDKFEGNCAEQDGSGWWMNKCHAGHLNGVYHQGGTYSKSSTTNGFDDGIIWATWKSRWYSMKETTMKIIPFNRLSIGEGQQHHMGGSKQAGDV

human fibrin [2] = biological target: T2, human fibrin (human, UniProt P02671 36-629; P02675 45-491; P02679 27-437, limits assumed); assay: ELISA, hybridoma culture supernatant (undiluted) on fibrin plate; selection of the clone
T2 construct: Made on the plate: fibrinogen (Sigma) coated at 50 ug/ml, dried, then treated with 10 NIH U/ml human thrombin with 10 mM CaCl2 and 7 mM L-cysteine; also called fibrin plate; fibrin (1)
T2 sequence (looked up) 1: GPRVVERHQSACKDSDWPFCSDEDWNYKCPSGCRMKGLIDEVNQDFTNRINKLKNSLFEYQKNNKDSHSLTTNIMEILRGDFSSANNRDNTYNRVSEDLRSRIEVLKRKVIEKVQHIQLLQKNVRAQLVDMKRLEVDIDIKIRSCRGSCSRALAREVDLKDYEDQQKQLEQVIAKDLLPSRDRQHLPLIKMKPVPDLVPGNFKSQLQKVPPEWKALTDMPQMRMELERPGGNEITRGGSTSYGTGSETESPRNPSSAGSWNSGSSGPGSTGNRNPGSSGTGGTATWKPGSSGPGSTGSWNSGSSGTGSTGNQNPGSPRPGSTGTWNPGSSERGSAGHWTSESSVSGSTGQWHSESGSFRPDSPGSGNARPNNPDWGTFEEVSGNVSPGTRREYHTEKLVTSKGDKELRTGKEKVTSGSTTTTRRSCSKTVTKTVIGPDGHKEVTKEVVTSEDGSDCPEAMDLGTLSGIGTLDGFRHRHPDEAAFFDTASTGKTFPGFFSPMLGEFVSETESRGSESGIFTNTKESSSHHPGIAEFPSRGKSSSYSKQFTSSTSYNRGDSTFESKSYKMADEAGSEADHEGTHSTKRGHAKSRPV
T2 sequence (looked up) 2: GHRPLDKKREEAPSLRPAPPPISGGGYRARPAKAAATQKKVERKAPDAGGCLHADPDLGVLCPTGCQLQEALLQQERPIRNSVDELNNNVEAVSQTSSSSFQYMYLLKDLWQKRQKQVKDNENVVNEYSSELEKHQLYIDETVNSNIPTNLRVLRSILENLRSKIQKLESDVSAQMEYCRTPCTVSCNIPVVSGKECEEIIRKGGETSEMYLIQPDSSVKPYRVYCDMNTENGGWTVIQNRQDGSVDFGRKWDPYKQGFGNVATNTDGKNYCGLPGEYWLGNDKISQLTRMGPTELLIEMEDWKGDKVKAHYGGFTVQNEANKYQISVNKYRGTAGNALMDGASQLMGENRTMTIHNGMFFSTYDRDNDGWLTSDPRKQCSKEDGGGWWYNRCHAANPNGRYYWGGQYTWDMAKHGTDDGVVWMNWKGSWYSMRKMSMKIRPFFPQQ
T2 sequence (looked up) 3: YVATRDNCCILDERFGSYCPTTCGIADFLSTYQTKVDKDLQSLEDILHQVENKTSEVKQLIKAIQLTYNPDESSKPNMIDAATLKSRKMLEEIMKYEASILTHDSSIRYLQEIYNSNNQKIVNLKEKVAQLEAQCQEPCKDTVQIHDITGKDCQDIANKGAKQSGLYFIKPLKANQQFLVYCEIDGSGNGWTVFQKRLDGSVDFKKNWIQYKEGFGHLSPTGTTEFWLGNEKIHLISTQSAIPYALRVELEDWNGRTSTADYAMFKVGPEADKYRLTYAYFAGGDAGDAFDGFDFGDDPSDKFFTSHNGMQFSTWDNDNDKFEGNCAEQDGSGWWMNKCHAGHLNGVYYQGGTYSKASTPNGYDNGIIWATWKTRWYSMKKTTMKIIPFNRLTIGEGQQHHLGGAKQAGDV

human fibrinogen [3] = biological target: T3, human fibrinogen (human, UniProt P02671 20-629; P02675 31-491; P02679 27-437, limits assumed); assay: ELISA, hybridoma culture supernatant (undiluted) on fibrinogen plate; selection of the clone
T3 construct: Bought (Sigma), coated on 96-well plates at 50 ug/ml in TBS pH 8.5; also called fibrinogen (Sigma) plate; fibrinogen (2)
T3 sequence (looked up) 1: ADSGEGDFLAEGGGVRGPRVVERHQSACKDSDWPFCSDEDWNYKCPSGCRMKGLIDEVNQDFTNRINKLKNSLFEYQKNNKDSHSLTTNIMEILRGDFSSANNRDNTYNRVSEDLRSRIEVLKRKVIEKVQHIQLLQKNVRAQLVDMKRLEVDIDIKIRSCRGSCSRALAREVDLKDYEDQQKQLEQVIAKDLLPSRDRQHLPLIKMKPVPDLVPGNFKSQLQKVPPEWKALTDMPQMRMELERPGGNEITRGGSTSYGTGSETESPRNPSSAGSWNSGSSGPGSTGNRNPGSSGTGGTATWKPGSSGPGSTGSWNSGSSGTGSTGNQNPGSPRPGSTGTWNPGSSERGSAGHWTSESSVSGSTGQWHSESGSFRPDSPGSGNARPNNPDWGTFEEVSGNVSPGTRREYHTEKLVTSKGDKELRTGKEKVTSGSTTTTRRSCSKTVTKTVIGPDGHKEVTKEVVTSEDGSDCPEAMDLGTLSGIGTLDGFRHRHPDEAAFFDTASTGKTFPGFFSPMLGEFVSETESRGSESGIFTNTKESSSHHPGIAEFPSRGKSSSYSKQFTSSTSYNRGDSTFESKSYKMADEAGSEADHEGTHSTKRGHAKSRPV
T3 sequence (looked up) 2: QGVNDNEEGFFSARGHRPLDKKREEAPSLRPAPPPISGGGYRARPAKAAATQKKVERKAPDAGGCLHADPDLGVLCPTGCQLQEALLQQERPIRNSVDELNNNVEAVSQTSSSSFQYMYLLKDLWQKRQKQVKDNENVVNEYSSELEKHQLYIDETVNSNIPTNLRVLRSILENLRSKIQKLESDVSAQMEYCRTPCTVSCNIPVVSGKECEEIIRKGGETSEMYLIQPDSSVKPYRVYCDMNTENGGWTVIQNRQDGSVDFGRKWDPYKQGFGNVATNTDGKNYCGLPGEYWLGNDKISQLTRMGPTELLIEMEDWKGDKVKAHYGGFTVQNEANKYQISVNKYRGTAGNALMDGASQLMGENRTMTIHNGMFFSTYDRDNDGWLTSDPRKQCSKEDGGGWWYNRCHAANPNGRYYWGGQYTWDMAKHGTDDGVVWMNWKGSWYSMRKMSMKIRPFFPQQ
T3 sequence (looked up) 3: T2 sequence (looked up) 3

human fibrin [4] = biological target: T2, human fibrin; assay: ELISA, purified chimeric antibody on fibrin plate (Fig. 3)
human fibrinogen [5] = biological target: T3, human fibrinogen; assay: ELISA, purified chimeric antibody on fibrinogen plate (Fig. 3)
mouse fibrinogen [6] = biological target: T1, mouse fibrinogen; assay: as above

- binding result (mouse fibrinogen [1]): no binding
- binding result (human fibrin [2]): binds
- binding result (human fibrinogen [3]): no binding
B1: mouse anti-fibrin IgM antibody produced by hybridoma cell line 102-10 (accession number NITE BP-923) (antibody, V domains shown)
VH: QIQLVQSGPELKKPGETVKISCKASGYTFTNYGMNWVKQAPGKGLKWMGWINTYTGEATYADDFKGRFAFSLETSANTAYVQINNLKNEDTATYFCARLMDYWGQGTSVTVSS
VL: DIQMTQSPSSLSASLGGKVTITCKASQDINKYIAWFQHKPGKGPRLLIHYTSTLQPGIPSRFSGSGSGRDYSFSISNLEPEDLATYYCLQYDNLTWTFGGGTKLEIK
notes: Mouse IgM; Tested as hybridoma culture supernatant in ELISA; also called clone 102-10; mouse IgM antibody

- binding result (human fibrin [4]): binds
- binding result (human fibrinogen [5]): no binding
- binding result (mouse fibrinogen [6]): no binding
B2: human type anti-fibrin chimeric antibody (human type IgG clone 102-10Hu) (antibody, V domains shown)
VH: B1 VH
VL: B1 VL
notes: made in CHO cells, purified on Protein G and hydroxyapatite; They may include a leader peptide; no cleavage site is stated; also called human chimeric antibody; human chimeric anti-fibrin IgG
